T1: Fas receptor on Jurkat or HT-29 cells (human, UniProt P25445 26-335)
T1 sequence (looked up): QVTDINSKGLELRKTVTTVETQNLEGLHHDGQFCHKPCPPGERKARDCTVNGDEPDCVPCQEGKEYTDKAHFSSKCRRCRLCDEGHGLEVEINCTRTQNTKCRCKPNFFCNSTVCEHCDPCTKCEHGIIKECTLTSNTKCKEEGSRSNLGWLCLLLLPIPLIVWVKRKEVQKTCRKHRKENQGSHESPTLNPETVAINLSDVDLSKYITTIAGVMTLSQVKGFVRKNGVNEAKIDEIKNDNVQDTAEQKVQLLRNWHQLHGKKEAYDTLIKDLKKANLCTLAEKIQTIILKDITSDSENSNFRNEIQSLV

T2: TNFR6 alpha-Fc (full length TNFR-6 alpha, amino acids 1-300 of SEQ ID NO:2, fused to an Fc domain) (human, UniProt O95407 30-300)
T2 construct: Cloned as aa 1-300; disulfide-linked dimer; also called TR6-Fc; TNFR6-Fc; not shown: Fc domain of human IgG1
T2 sequence: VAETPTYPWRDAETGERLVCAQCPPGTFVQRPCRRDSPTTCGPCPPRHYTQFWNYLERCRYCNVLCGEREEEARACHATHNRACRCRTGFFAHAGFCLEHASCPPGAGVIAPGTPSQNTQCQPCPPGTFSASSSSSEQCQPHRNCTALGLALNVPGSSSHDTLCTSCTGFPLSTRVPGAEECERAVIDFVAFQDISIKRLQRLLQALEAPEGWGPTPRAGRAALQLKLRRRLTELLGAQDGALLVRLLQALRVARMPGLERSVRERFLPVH

T3: full length TNF-gamma-beta on the cell surface of transfected cells (human, UniProt O95150 1-251)
T3 construct: whole, on cells; also called TNF-gamma-beta expressing cells
T3 sequence (looked up): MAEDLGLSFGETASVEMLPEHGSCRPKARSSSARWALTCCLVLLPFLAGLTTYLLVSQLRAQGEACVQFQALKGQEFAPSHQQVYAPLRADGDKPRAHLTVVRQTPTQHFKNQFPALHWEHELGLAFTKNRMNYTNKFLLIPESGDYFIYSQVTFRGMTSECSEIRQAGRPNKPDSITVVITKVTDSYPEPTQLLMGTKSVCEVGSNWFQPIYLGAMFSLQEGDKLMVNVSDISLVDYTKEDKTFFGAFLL

T4: FLAG-tagged soluble TNF-gamma-beta (aa 72-251) (human, UniProt O95150 72-251)
T4 construct: also called FLAG-TNF-gamma-beta; FLAG-TL1β
T4 sequence: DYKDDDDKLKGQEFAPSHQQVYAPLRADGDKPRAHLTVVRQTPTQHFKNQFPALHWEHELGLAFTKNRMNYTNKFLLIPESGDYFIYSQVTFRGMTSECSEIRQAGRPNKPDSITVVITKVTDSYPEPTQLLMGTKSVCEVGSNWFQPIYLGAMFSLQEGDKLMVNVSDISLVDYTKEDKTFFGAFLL

B1: Soluble human FLAG-FasL (synthesized at HGS) (ligand)
chain: DYKDDDDKQIGHPSPPPEKKELRKVAHLTGKSNSRSMPLEWEDTYGIVLLSGVKYKKGGLVINETGLYFVYSKVYFRGQSCNNLPLSHKVYMRNSKYPQDLVMMEGKMMSYCTTGQMWARSSYLGAVFNLTSADHLYVNVSELSLVNFEESQTFFGLYKL
notes: Called trimerized in the BIAcore experiment; cross-linked with anti-FLAG antibody in the cell assays; also called FasL-Flag; trimerized FLAG-FasL
B2: TR2-Fc (extracellular domain of TR2, aa 1-192, fused to the Fc domain of human IgG1) (Fc fusion)
chain: LPSCKEDEYPVGSECCPKCSPGYRVKEACGELTGTVCEPCPPGTYIAHLNGLSKCLQCQMCDPAMGLRASRNCSRTENAVCGCSPGHFCIVQDGDHCAACRAYATSSPGQRVQKGGTESQDTLCQNCPPGTFSPNGTLEECQHQTKCSWLVTKA
notes: The range is as cloned; also called HveA-Fc; HveA; not shown: Fc domain of human IgG1
B3: BCMA on transiently transfected cells (receptor, UniProt Q02223 1-184, looked up)
chain: MLQMAGQCSQNEYFDSLLHACIPCQLRCSSNTPPLTCQRYCNASVTNSVKGTNAILWTCLGLSLIISLAVFVLMFLLRKINSEPLKDEFKNTGSGLLGMANIDLEKSRTGDEIILPRGLEYTVEECTCEDCIKSKPKVDSDHCFPLPAMEEGATILVTTKTNDYCKSLPAALSATEIEKSISAR
notes: whole, on cells
B4: Full-length human TR6 (without Fc) (receptor)
chain: T2 sequence
notes: also called TR6-non-Fc; TR6 non-Fc

For assay [1], the target named is T1, Fas receptor on Jurkat or HT-29 cells. Kind of assay: cell-based or functional assay.
Assay [2] has as its target B4. Kind of assay: BIAcore, FasL-Flag soluble.
Assay [3] deals with T2, TNFR6 alpha-Fc (full length TNFR-6 …). Nature of the assay: BIAcore, TR6-Fc immobilized, trimerized FLAG-FasL soluble. (In general: In SPR one partner is held on a chip, and binding of the other changes the refractive index at the surface.)
The target of assay [4] is T3, full length TNF-gamma-beta on the cell …. Nature of the assay: flow cytometry, receptor-Fc on HEK293F cells expressing full length TNF-gamma-beta. The protocol:
(§1) One million cells, in 0.1 ml of FACS buffer (PBS, 0.1% BSA, 0.1% NaN₃), were incubated with 0.1-1 microgram of protein or antibody at RT for 15 min. The cells were washed with 3 ml of FACS buffer, reacted with biotinylated primary antibody, and stained with PE-conjugated secondary antibody at RT for 15 min. Cells were then washed again, resuspended in 0.5 microgram/ml of propidium iodide, and live cells were gated and analyzed on a FACScan using the CellQuest software (BD Biosciences).

In assay [5] the target is T4, FLAG-tagged soluble TNF-gamma-beta (aa …). Nature of the assay: flow cytometry on transiently transfected cells. The protocol: as §1
In general terms: Flow cytometry measures light scatter and fluorescence of single cells or particles in a stream.

The target of assay [6] is T3, full length TNF-gamma-beta on the cell …. Nature of the assay: flow cytometry competition; competitor DR3-Fc. The protocol:
as §1

In assay [1], “sFas ligand (Alexis Corporation) with a FLAG epitope tag at its N-terminus (from UniProt P48023 103-281)” registered a % Cells undergoing apoptosis (annexin/propidium iodide FACS, Jurkat cells), FasL (20 ng) alone (% cells undergoing apoptosis) of 8.87 and a Jurkat cell viability (ALOMAR blue, OD 570 nm-630 nm) (% decrease in cell viability) of 50.
Consider B1, for which the figures for the equilibrium dissociation constant (Kd) in assay [2] and in assay [3] were 17 nM and 4.6 nM, respectively. Also, the “Jurkat apoptosis (annexin staining, FACS)” value in assay [1] is ~7 fold.
For B2, the binding result in assay [4] is recorded as “no binding”.
Regarding B3, in assay [5], the binding result was “no binding”.
Take B4: in assay [6], the “molar ratio of TR6 to DR3-Fc at which no DR3-Fc binding was detected” value is 2 molar ratio (2:1).
